The assay deals with Deinococcus radiodurans MazF (MazF-dr) (Deinococcus radiodurans). The assay is described as follows: crystal structure; apo MazF-dr with N-terminal 6x His-tag, 5 mg/mL, sitting-drop vapor diffusion at 293 K; 0.2 M ammonium sulfate, 0.1 M Bis-Tris pH 5.5, 25% w/v PEG 3350; space group P4(3)2(1)2, dimer in the asymmetric unit; 1.3 Å.

A word on the stoichiometry N: it is a count of units in the complex or per binding partner. As to “Deinococcus radiodurans MazF (MazF-dr) (enzyme)”, the stoichiometry N came out at 2.

Source of the values: paper PMC7933679.
